Key:
[1] = target: MERS-CoV full-length spike trimer antigen (amino acids 1 to 1275 of the spike protein, lacking the … (MERS-CoV, UniProt K9N5Q8 18-1275))
[2] = target: T1, MERS-CoV spike protein on live MERS-CoV (EMC, KNIH-002, KNIH-016 and KNIH-042 strains) (MERS-CoV); assay: cell-based or functional assay; design: ND50 (PRNT with MERS-CoV): unit not given beside the values
T1 chain: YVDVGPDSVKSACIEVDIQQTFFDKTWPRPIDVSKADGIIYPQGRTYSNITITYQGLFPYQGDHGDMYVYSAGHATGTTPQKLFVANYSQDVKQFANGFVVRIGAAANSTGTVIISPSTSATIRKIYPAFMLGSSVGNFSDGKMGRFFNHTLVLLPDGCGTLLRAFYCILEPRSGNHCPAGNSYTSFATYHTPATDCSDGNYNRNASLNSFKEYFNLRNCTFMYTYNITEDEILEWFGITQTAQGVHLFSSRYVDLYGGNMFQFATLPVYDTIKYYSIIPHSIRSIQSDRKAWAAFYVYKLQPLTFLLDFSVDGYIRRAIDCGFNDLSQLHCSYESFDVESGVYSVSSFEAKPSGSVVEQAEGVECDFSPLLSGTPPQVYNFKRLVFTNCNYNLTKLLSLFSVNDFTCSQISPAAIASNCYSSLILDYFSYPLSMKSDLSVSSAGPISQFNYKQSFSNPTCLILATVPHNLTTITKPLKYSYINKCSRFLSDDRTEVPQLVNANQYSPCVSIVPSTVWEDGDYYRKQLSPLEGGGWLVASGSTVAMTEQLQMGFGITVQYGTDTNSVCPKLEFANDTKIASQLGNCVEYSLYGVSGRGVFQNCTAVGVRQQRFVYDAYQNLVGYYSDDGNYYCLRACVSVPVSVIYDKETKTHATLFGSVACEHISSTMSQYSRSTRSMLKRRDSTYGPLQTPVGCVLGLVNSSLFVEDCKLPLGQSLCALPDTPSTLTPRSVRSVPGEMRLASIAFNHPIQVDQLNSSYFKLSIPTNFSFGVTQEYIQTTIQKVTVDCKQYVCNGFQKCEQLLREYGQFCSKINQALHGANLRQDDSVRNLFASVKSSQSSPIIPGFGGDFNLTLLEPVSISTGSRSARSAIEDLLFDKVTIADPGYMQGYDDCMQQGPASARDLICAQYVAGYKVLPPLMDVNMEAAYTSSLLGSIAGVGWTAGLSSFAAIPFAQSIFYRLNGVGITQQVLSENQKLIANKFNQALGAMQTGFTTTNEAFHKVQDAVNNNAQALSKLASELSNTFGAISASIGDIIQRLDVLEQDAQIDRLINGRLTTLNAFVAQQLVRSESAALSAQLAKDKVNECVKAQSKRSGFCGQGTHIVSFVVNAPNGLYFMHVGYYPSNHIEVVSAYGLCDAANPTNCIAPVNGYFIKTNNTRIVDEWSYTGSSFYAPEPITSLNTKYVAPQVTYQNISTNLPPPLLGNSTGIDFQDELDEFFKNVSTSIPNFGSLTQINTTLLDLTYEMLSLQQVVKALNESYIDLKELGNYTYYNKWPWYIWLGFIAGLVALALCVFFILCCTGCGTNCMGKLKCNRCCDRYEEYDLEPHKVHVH

[3] = target: T2, MERS-CoV RBD antigen (receptor binding domain, amino acids 377 to 588 of the spike protein) (MERS-CoV, UniProt K9N5Q8 377-588); assay: ELISA, RBD antigen coated
[4] = target: T2, MERS-CoV RBD antigen (receptor binding …)
[5] = target: T3, MERS-CoV S1 antigen (S1 domain, amino acids 1 to 757 of the spike protein) (MERS-CoV, UniProt K9N5Q8 18-757)
[6] = target: T3, MERS-CoV S1 antigen (S1 domain, amino …); assay: SPR, S1 antigen on CM5 chip, antibody as analyte (called avidity)
[7] = target: T2, MERS-CoV RBD antigen (receptor binding …); assay: SPR, RBD antigen on CM5 chip, antibody as analyte (called avidity)
[8] = target: T2, MERS-CoV RBD antigen (receptor binding …); assay: SPR, RBD antigen attached on a CM5 chip, antibody loaded, HBS-EP

Binder	EC50 (read off the curve) [1] [µg/mL]	ND50 (PRNT with MERS-CoV) [2]	ND50 antibody conc. (PRNT with MERS-CoV) [2] [µg/mL]	binding result [3]	EC50 (read off the curve) [4] [µg/mL]	EC50 (read off the curve) [5] [µg/mL]	Kd [6] [pM]	koff [6] [s⁻¹]	kon [6] [M⁻¹ s⁻¹]	Kd [7] [pM]	koff [7] [s⁻¹]	kon [7] [M⁻¹ s⁻¹]	binding result [8]
90-C4 antibody (antibody, V domains shown) VH: QVQLQESGPGLVKPSGTLSLTCAVSGGSINSSNWWSWVRQPPGKGLEWIGEIYYSGSTNYNPSLKSRVTTSVDNSKNQFSLKLSSVTAADTAVYYCATFDSGGYNPNWFDPWGQGTLVTVSS VL: QSALTQPPSVSGAPGQRVTISCTGSSSSIGAGYDVHWYQQLPGTAPKLLIYGNSNRPSGVPDRFSGSKSGTSASLAITGLQAEDEADYYCQSYDSSLSGYVFGTGTKVTVLG	~0.08	0.78	12.8	no binding (tested: up to 10 µg/ml)									
90-E5 antibody (antibody, V domains shown) VH: QVQLVQSGAEVKKPGSSVKVSCKASGGTFSSYTINWVRQAPGQGLEWMGGIIPIFGTANYAQKFQGRVTITADASTSTAYMELSSLRSEDTAVYYCARVLLRSSSWFSSNWFDPWGQGTLVTVSS VL: QSVLTQPPSVSGAPGQRVTISCTGSSSNIGAGYDVHWYQQLPGTAPKVLIYGNSNRPSGVPDRFSGSKSDTSASLAITGLQAEDEADYYCQSYDSSLSVVFGGGTKLTVLG	~0.01	6.6	1.51		~0.07	~0.03							
90-E6 antibody (antibody, V domains shown) VH: EVQLVESGGGLVQPGRSLRLSCAASGFTFDDHAMHWVRQAPGKGLEWVSGFSWNSGSIGYADSVKGRFTISRDNAKNSLYLQMNSLRAEDTALYYCAKDRRSDYYFYGMDVWGQGTTVTVSS VL: QSVLTQPPSVSAAPGQKVTISCSGSRSNIGNNYVSWYQQLPGTAPKLLIYDNNKRPSGIPDRFSGSKSGTSATLGITGLQTGDEADYYCGTWDSSLNAGVFGGGTKLTVLG		0.68	14.8		~0.09								
90-F1 antibody (antibody, V domains shown) VH: QVQLVQSGAEVKRPGSSVKVSCKTSGGTFNNNAINWVRQAPGQGLEWMGGIIPFFGIAKYAQKFQGRVTITADESTSTAYMELSSLRSEDTAVYYCARDLPRESSYGSGSYYTHYYAMDVWGQGTTVTVSS VL: not shown		956	0.01				153	9.88e-05	648000	72	2.71e-05	376000	
90-F2 antibody (antibody, V domains shown) VH: QVQLVQSGAEVKKPGASVKVSCKASGYTFTTYYMHWVRQAPGQGLEWMGIINPSGGSTSYAQKFQGRVTMTRDTSTSTVYMELSSLRSEDTAVYYCARGAVVVILDYWGQGTLVTVSS VL: not shown		54	0.19		~0.07		6600	0.000882	134000	5860	0.0014	238000	
77-A5 antibody (antibody, V domains shown) VH: QVQLVQSGAEVKKPGSSVKVSCKASGGTFRSHAISWVRQAPGQGLEWMGGIIPIFASANYAQKFQGRVTITADESTSTAYMDLSSLRSDDTAVYYCAKNVSPKSYSGRYSISYFYGVDVWGQGTTVTVSS VL: not shown		35.6	0.28		~0.008		≤ 75.1	≤ 1e-05	133000	161	2.08e-05	130000	
77-A6 antibody (antibody, V domains shown) VH: EVQLLESGGGLVQPGGSLRLSCADSGLTFSSYAMSWVRQAPGKGLEWVSAISVSGGSTYYSDSVKGRFTISRDNSKNTLSLQMNSLRAEDTAVYYCVKARSIVGPFDYWGQGTLVTVSS VL: QSALTQPPSVSAAPGQKVTISCSGSSSNIGNNYVSWYQHLPGTAPKLLIYDNIMRPSGIPDRFSGSKSGTSATLGITGLQTGDEADYYCGTWDTSLSAVVFGGGTKLTVLG		95.7	0.1		~0.06		695	4.43e-05	63800	673	3.15e-05	46700	
90-A3 antibody (antibody, V domains shown) VH: QVQLVQSGAEVKKPGASVKVSCMTSGYTFTSYGISWVRQAPGQGLEWMGWISAYNGNTNYAQKLQGRVTMTTDTSTSTAYMELRSLRSDDTAVYYCARDRGAYWDCGGDCYLSAFDYWGQGTLVTVSS VL: QAVVTQPPSVSAAPGQKVTISCSGSSSNIGNNYVSWYQQLPGTAPKLLIYDNNKRPSGIPDRFSGSKSGTSATLGITGLQTGDEADYYCGTWDSSLSAVVFGGGTKLTVLG		0.63	15.8	no binding (tested: up to 10 µg/ml)									
90-A9 antibody (antibody, V domains shown) VH: QVQLVQSGAEVKKPGSSVKVSCKASGGTFSSFPISWVRQAPGQGLEWMGGIIPIFGAANYAQKFQGRVTITADESTSTAYMELSSLRSEDTAVYYCARNYEEIVVIPAIMNFGYWGQGTLVTVSS VL: EIVLTQSPGTLSLSPGERATLSCRASQSVASSYLAWYQQKPGQAPRLLIYGTSSRATGIPDRFSGSGSGADFTLTISRLEPEDFAVYYCQQYGTSPLTFGGGTKVEIK		0.58	17.3	no binding (tested: up to 10 µg/ml)									
90-B2 antibody (antibody, V domains shown) VH: QVQLQESGPGLVKPSETLSLTCTVSGGSISSSSYYWGWIRQPPGKGLEWIGSIYYSGNTYYNPSLKSRVTISVDTSKNHFSLRLSSVTAADTAVYFCARSLPHYDSTGYLLYWGQGTLVTVSS VL: EIVLTQSPATLSLSPGGRATLSCRASQSVSRYLAWYQQKPGRAPRLLIYDASNRAPGIPARFSGSGSGTDFTLTISSLEPEDFAVYYCQQRSNWPQTTFGPGTKVDIKR		39.5	0.25				≤ 75.1	≤ 1e-05	131000				no binding (tested: 500 nM)
90-B7 antibody (antibody, V domains shown) VH: EVQLLESGGGLVKPGGSLRLSCAASGFTFGSYSMTWVRQAPGKGLEWVSSISSSSSYIYYADSVKGRFTISRDNAKNSLFLQMNSLRAEDTAVYYCARGNGYCSHNSCYKIGVWFDPWGQGTLVTVSS VL: QAVVTQPPSVSAAPGQKVTISCSGSSSNIGNNYVSWYQQLPGTAPKLLIYDNNKRPSGIPDRFSGSKSGTSATLGITGLQTGDEADYYCGTWDSSLSAFVFGTGTKVTVLG		14.9	0.67				153	0.000104	681000				no binding (tested: 500 nM)
